In US20110190477A1 (G2 INFLAMMATION, published 2011):

Molecular target: T1, chimeric receptor 8. HHHm (human; mouse, UniProt P30993 264-283, limits assumed)
T1 construct: Transiently expressed on mouse L1.2 cells
T1 sequence: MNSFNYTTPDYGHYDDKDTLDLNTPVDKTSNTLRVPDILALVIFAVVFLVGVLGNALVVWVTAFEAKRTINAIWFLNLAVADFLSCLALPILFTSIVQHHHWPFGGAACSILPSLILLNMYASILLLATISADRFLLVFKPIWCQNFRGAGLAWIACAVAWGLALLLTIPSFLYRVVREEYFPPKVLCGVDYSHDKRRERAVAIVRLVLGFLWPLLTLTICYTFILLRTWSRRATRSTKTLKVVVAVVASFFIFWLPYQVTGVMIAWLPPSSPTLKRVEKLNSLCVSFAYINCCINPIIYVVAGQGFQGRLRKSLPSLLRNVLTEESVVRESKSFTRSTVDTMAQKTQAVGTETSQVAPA
Test: flow cytometry on transiently transfected L1.2 cells
Protocol: A series of chimeric receptors comprising segments of mouse and human C5aR were constructed to identify the region of the C5a receptor that the antibodies bound. […] Each recombinant vector (5 μg diluted in DMEM) encoding a different chimeric receptor was transfected into 5×10⁵ mouse L1.2 cells using Lipofectamine 2000 (Invitrogen). Cells were grown in DMEM or RPMI (Invitrogen) plus 10% foetal bovine serum (Hyclone). After 24 hours or 48 hours, cells were harvested by centrifugation at 1,500 rpm for 5 min and resuspended in FACS buffer (phosphate buffered saline plus 2% bovine serum albumin). For staining with hAb-Q, 0.5×10⁵ transfected cells were incubated with 5 or 10 μg/ml antibody in a volume of 50 μl per well at 4° C. for 20 minutes. Cells were pelleted as above and rinsed 3 times with 150 μl FACS buffer before addition of 50 μl FITC-conjugated anti-human IgG diluted 1:200 or 1:300 (Sigma, F1641). This mix was incubated for 20 min at 4° C. before cells were pelleted, washed with FACS buffer 3 times and finally resuspended in 150-200 μl FACS buffer. Samples were analysed on a FACS Calibur (BD Biosciences).
To confirm that the humanised antibody hAb-Q, which was derived from mouse mAb 7F3 by CDR grafting, and therefore should contain the same antigen-binding site, had the same staining pattern as 7F3, transiently transfected cells expressing the different chimeric human/mouse C5aR were stained with hAb-Q and analysed by flow cytometry. The pattern of staining by hAb-Q was identical to that observed with 7F3. There was no staining by the secondary antibody (anti-hIgG-FITC) alone.

B1: humanized anti-C5aR antibody hAb-Q (antibody, human IgG4 S228P, kappa)
light: DVVMTQSPLSLPVTLGEPASISCRSSQSLVHSNGNTYLHWYLQKPGQSPQLLIYKVSNRFSGVPDRFSGSGSGTDFTLKISRVEAEDVGVYFCSQSTLVPLTFGQGTKLEIKRTVAAPSVFIFPPSDEQLKSGTASVVCLLNNFYPREAKVQWKVDNALQSGNSQESVTEQDSKDSTYSLSSTLTLSKADYEKHKVYACEVTHQGLSSPVTKSFNRGEC
heavy: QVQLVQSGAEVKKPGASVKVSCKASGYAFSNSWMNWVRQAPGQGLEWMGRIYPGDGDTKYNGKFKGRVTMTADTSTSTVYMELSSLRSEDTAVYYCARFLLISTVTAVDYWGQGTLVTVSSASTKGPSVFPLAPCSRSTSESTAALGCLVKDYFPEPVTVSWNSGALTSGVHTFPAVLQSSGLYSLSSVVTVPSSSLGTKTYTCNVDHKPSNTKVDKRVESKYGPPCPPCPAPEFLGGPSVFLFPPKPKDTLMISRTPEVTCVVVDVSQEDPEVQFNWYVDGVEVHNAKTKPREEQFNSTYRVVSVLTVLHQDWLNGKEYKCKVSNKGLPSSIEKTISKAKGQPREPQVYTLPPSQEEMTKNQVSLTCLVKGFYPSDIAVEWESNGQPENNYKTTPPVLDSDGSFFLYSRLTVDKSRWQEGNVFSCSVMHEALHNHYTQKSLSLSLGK
notes: IgG4 with the Ser228Pro mutation; also called antibody Q; anti-C5aR ab
Q: Does B1 bind?
A: binds
